Laboratory results as given in patent publication EP4541444A1.
Substitutions are numbered along the chain they refer to.

Columns and labels:
[1] = target: AAV9 viral particles (adeno-associated virus serotype 9); experiment: SPR (Biacore), biotinylated ligand on SA chip, AAV9 2E12 vp/ml
trastuzumab-GFP = experiment: SPR (Biacore), fusion on CM5 chip, 2 µM Fc block, then trastuzumab-eGFP 1 µM
[2] = target: AAV9 viral particles (adeno-associated virus serotype 9); experiment: SPR (Biacore), ligand amine coupled to CM5 chip, AAV9 2E12 vp/ml
[3] = target: epidermal growth factor receptor (Example 4A) (UniProt P00533); experiment: SPR (Biacore), fusion on CM5 chip, EGFR 200 nM
[4] = target: EGFR (SinoBiological, 10001-H08H) (UniProt P00533); experiment: SPR (Biacore), fusion on CM5 chip, EGFR 200 nM

B1: 2B-1 (VHH)
chain: QVQLQQSGGGSVQAGGSLRLSCTISGRTLSDYTMGWFRQRPGKEREFVAAISWSGAYTKYADSVKGRFTISRDNAKNTVYLQMNSLKPEDTAVYYCAAGPTGLLSKKATPADYDYWGQGTQVTVSSQASAEAAAKEAAAKAGQVQLQQSGGGSVQAGGSLRLSCTISGRTLSDYTMGWFRQRPGKEREFVAAISWSGAYTKYADSVKGRFTISRDNAKNTVYLQMNSLKPEDTAVYYCAAGPTGLLSKKATPADYDYWGQGTQVTVSSQASAEAAAKEAAAKAGQVQLQQSGGGSVQAGGSLRLSCTISGRTLSDYTMGWFRQRPGKEREFVAAISWSGAYTKYADSVKGRFTISRDNAKNTVYLQMNSLKPEDTAVYYCAAGPTGLLSKKATPADYDYWGQGTQVTVSSQASHHHHHHC
AAV9 capacity (2E12 vp/ml) [1]: 13400 RU

B2: 4B-5 (VHH)
VHH: QVQLQESGGGLVQPGGSLRLSCAASGRTSINPYMAWFRQAPGKQREFVAAISSGGVYTYYTDSVKGRFTISRDNAKTTVYLQMNSLKPEDTAVYYCAADFRRGGNWNVDPFRYDYQYWGQGTQVTVSS
Binding capacity trastuzumab-eGFP (1 µM) (trastuzumab-GFP): 4300 RU

B3: 4B-6 (VHH)
VHH: B2 VHH with E6Q, L11S, P14A, A23T, A24I, A40R, Q44E, T61A, T77N, Q116D
Binding capacity trastuzumab-eGFP (1 µM) (trastuzumab-GFP): 3910 RU

B4: 2A-1 (VHH)
VHH: QVQLQQSGGGSVQAGGSLRLSCTISGRTLSDYTMGWFRQRPGKEREFVAAISWSGAYTKYADSVKGRFTISRDNAKNTVYLQMNSLKPEDTAVYYCAAGPTGLLSKKATPADYDYWGQGTQVTVSS
AAV9 capacity (2E12 vp/ml) [2]: 11300 RU

B5: 4A-5 (VHH)
VHH: QVQLQQSGGGSVQAGGSLRLSCTISGRTFSSYAMGWFRQRPGKEREFVAAINWSSGSTYYADSVKGRFTISRDNAKNTVYLQMNSLKPEDTAVYYCAAGYQINSGNYNFKDYEYDYWGQGTQVTVSS
Binding capacity EGFR (200 nM) [3]: 2350 RU

B6: 4B-4 (VHH)
VHH: B5 VHH
Binding capacity EGFR (200 nM) [4]: 1900 RU
